Measured values from article PMC10167327, “Inositol pyrophosphates activate the vacuolar transport chaperone complex in yeast by disrupting a homotypic SPX domain interaction” (Nature Communications, 2023).

T1: Vtc2* (Vtc2(1–553), SPX and TTM domains of Vtc2 without the transmembrane domain) (S. cerevisiae, UniProt P43585 1-553)
T1 construct: Vtc2, subunit of the vacuolar transporter chaperone (VTC) complex, S. cerevisiae, residues 1-553 (SPX and TTM domains, no transmembrane domain); pET27b(+) construct from GenScript with a C-terminal TEV site and His10 tag; source: E. coli Lemo21(DE3) BL21, purified (HisTrap, Superdex 200)
T1 sequence (looked up): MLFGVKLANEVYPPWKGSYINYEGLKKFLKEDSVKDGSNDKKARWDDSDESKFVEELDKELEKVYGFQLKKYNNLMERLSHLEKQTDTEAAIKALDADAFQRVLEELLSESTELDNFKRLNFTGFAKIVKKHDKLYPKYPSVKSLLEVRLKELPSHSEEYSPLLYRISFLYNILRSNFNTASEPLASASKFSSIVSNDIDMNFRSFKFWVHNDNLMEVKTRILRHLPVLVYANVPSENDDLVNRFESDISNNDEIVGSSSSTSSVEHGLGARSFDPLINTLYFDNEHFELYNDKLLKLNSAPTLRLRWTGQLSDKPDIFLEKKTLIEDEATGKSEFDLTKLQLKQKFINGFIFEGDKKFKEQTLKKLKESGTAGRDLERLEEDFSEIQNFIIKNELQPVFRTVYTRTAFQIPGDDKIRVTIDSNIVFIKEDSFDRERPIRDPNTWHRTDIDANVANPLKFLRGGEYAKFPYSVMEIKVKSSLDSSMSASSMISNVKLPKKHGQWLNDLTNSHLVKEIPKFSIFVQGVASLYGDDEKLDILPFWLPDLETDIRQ

B1: Vtc4* (Vtc4(1–487), SPX and TTM domains of Vtc4 without the transmembrane domain) (domain or fragment)
chain: not shown
modifications: RED-tris-NTA 2nd generation dye on the His tag (MST); RED-NHS 2nd generation dye (MST with TTM2)
notes: Vtc4, catalytic subunit of the vacuolar transporter chaperone (VTC) complex, yeast, residues 1-487 (SPX and TTM domains, no transmembrane domain); pET27b(+) construct from GenScript with a C-terminal TEV site and His10 tag; The dye is absent in NMR and cross-linking; also called Vtc4ΔTM; source: E. coli Lemo21(DE3) BL21, purified (HisTrap, Superdex 200); not shown: His10, C-terminal, kept

Experiments:
Assay in all cases: MST; His-tagged Vtc4* or TTM4 labelled with RED-tris-NTA 2nd generation dye, titrated with Vtc2* or SPX2 proteins; MST buffer 15 mM HEPES pH 7.0, 50 mM NaCl, 2 mM DTT; Monolith NT.115, 100 % laser power
Details in all cases: both partners purified
[1] = molecular target: B1
[2] = molecular target: T2, TTM4 (TTM domain of Vtc4, Vtc4(192–487)) (S. cerevisiae, UniProt P47075 192-487, RED-tris-NTA 2nd generation dye on the His tag)
T2 construct: Vtc4, yeast, residues 192-487 (triphosphate tunnel metalloenzyme domain); pET27b(+) construct from GenScript with a C-terminal TEV site and His10 tag; source: E. coli Lemo21(DE3) BL21, purified (HisTrap, Superdex 200); not shown: His10, C-terminal, kept
T2 sequence (P47075 192-487): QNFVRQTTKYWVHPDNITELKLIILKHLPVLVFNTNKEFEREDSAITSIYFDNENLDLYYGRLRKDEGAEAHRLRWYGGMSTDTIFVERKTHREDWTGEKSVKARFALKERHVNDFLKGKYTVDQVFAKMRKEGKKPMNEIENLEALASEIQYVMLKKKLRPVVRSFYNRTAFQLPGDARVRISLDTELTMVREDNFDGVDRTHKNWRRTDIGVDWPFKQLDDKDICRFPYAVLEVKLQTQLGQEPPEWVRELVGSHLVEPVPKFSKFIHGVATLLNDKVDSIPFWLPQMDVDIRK

[3] = molecular target: T1, Vtc2* (Vtc2(1–553), SPX and TTM domains …)

Row | Binder | binding result [1] | further results
1 | SPX2 S187A (domain or fragment, S. cerevisiae, UniProt P43585 1-201, looked up, Vtc2, S. cerevisiae, residues 1-201 (SPX2) with a point mutation in helix α7; also called serine 187 to alanine; source: E. coli Lemo21(DE3) BL21, purified; not shown: His5, C-terminal, cleaved) MLFGVKLANEVYPPWKGSYINYEGLKKFLKEDSVKDGSNDKKARWDDSDESKFVEELDKELEKVYGFQLKKYNNLMERLSHLEKQTDTEAAIKALDADAFQRVLEELLSESTELDNFKRLNFTGFAKIVKKHDKLYPKYPSVKSLLEVRLKELPSHSEEYSPLLYRISFLYNILRSNFNTASEPLAAASKFSSIVSNDIDM | binds | –
2 | SPX2 (SPX domain of Vtc2, Vtc2(1–201)) (domain or fragment, S. cerevisiae, UniProt P43585 1-201, looked up, Vtc2, S. cerevisiae, residues 1-201 (SPX domain with helix α7 and the C-terminal linker); Residues of the TEV site may remain at the C-terminus after cleavage; also called Vtc2-SPX domain; source: E. coli Lemo21(DE3) BL21, purified (HisTrap, TEV, reversed HisTrap, cation exchange, Superdex 75); not shown: His5, C-terminal, cleaved) MLFGVKLANEVYPPWKGSYINYEGLKKFLKEDSVKDGSNDKKARWDDSDESKFVEELDKELEKVYGFQLKKYNNLMERLSHLEKQTDTEAAIKALDADAFQRVLEELLSESTELDNFKRLNFTGFAKIVKKHDKLYPKYPSVKSLLEVRLKELPSHSEEYSPLLYRISFLYNILRSNFNTASEPLASASKFSSIVSNDIDM | – | fold reduction of affinity against Vtc4* [2]: ~20 fold
3 | SPX2 K127A (domain or fragment, S. cerevisiae, UniProt P43585 1-201, looked up, Vtc2, S. cerevisiae, residues 1-201 (SPX2) with a pseudo-active point mutation; source: E. coli Lemo21(DE3) BL21, purified; not shown: His5, C-terminal, cleaved) MLFGVKLANEVYPPWKGSYINYEGLKKFLKEDSVKDGSNDKKARWDDSDESKFVEELDKELEKVYGFQLKKYNNLMERLSHLEKQTDTEAAIKALDADAFQRVLEELLSESTELDNFKRLNFTGFAAIVKKHDKLYPKYPSVKSLLEVRLKELPSHSEEYSPLLYRISFLYNILRSNFNTASEPLASASKFSSIVSNDIDM | binds | –
4 | SPX2 Y19F (domain or fragment, S. cerevisiae, UniProt P43585 1-201, looked up, Vtc2, S. cerevisiae, residues 1-201 (SPX2) with a pseudo-active point mutation; source: E. coli Lemo21(DE3) BL21, purified; not shown: His5, C-terminal, cleaved) MLFGVKLANEVYPPWKGSFINYEGLKKFLKEDSVKDGSNDKKARWDDSDESKFVEELDKELEKVYGFQLKKYNNLMERLSHLEKQTDTEAAIKALDADAFQRVLEELLSESTELDNFKRLNFTGFAKIVKKHDKLYPKYPSVKSLLEVRLKELPSHSEEYSPLLYRISFLYNILRSNFNTASEPLASASKFSSIVSNDIDM | binds | –
5 | SPX2 N121A (domain or fragment, S. cerevisiae, UniProt P43585 1-201, looked up, Vtc2, S. cerevisiae, residues 1-201 (SPX2) with a pseudo-active point mutation; source: E. coli Lemo21(DE3) BL21, purified; not shown: His5, C-terminal, cleaved) MLFGVKLANEVYPPWKGSYINYEGLKKFLKEDSVKDGSNDKKARWDDSDESKFVEELDKELEKVYGFQLKKYNNLMERLSHLEKQTDTEAAIKALDADAFQRVLEELLSESTELDNFKRLAFTGFAKIVKKHDKLYPKYPSVKSLLEVRLKELPSHSEEYSPLLYRISFLYNILRSNFNTASEPLASASKFSSIVSNDIDM | binds | –
6 | SPX2 S189A (domain or fragment, S. cerevisiae, UniProt P43585 1-201, looked up, Vtc2, S. cerevisiae, residues 1-201 (SPX2) with a point mutation in helix α7; also called serine 189 to alanine; source: E. coli Lemo21(DE3) BL21, purified; not shown: His5, C-terminal, cleaved) MLFGVKLANEVYPPWKGSYINYEGLKKFLKEDSVKDGSNDKKARWDDSDESKFVEELDKELEKVYGFQLKKYNNLMERLSHLEKQTDTEAAIKALDADAFQRVLEELLSESTELDNFKRLNFTGFAKIVKKHDKLYPKYPSVKSLLEVRLKELPSHSEEYSPLLYRISFLYNILRSNFNTASEPLASAAKFSSIVSNDIDM | binds | –
7 | SPX2∆α7 (Vtc2(1–182)) (domain or fragment, S. cerevisiae, UniProt P43585 1-182, looked up, Vtc2, S. cerevisiae, residues 1-182 (SPX domain without helix α7 and the C-terminal linker); source: E. coli Lemo21(DE3) BL21, purified (as SPX2, cation exchange in 20 mM MES pH 6.0); not shown: His5, C-terminal, cleaved) MLFGVKLANEVYPPWKGSYINYEGLKKFLKEDSVKDGSNDKKARWDDSDESKFVEELDKELEKVYGFQLKKYNNLMERLSHLEKQTDTEAAIKALDADAFQRVLEELLSESTELDNFKRLNFTGFAKIVKKHDKLYPKYPSVKSLLEVRLKELPSHSEEYSPLLYRISFLYNILRSNFNTAS | binds | –
8 | B1 | – | Kd [3]: 13.8 µM
